Data as given in article PMC10370305, “Functional Degeneracy in Paracoccus denitrificans Pd1222 Is Coordinated via RamB, Which Links Expression of the Glyoxylate Cycle to Activity of the Ethylmalonyl-CoA Pathway” (Applied and Environmental Microbiology, 2023).
Values belong to the molecule of their own block, whether it stands above or below them.

Columns and labels:
RamBPd (Pden_1365) [1] = molecular target: T1, RamBPd (Pden_1365) (Paracoccus denitrificans, UniProt A1B1S2); assay: mass photometry titration (tetramer to dimer shift; saturation at […], […] dimer to tetramer); assay type: binding
T1 construct: purified RamBPd, His-SUMO tag cleaved off
T1 sequence (A1B1S2 1-477): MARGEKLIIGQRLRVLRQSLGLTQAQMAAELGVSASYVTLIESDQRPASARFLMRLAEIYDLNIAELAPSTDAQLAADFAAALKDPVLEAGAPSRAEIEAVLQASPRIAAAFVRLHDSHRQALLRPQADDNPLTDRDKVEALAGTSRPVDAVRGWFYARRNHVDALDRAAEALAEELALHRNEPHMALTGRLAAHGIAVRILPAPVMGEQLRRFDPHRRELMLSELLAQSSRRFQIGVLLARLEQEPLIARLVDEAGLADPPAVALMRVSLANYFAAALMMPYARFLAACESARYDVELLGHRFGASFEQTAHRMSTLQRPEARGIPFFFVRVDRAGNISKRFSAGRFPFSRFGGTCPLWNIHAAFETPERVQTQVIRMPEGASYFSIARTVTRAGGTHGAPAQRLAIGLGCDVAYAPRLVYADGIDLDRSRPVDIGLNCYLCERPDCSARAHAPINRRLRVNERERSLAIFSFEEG

RamBPd (Pden_1365) [2] = molecular target: T1, RamBPd (Pden_1365); assay: mass photometry titration (tetramer to dimer shift); assay type: binding
[3] = molecular target: RamBPd (Pden_1365), regulator of acetate metabolism of Paracoccus denitrificans Pd1222 (Paracoccus denitrificans Pd1222); assay: mass photometry; 250 nM RamBPd in PBS (pH 7.4), pre-incubated for 35 min with rising concentrations of free CoA or of a CoA ester (ethylmalonyl-, methylsuccinyl-, mesaconyl-, crotonyl-, beta-methylmalyl-CoA); tetramer to dimers
[4] = molecular target: RamBPd (Pden_1365), regulator of acetate metabolism of Paracoccus denitrificans Pd1222 (Paracoccus denitrificans Pd1222); assay: mass photometry; 250 nM RamBPd in PBS (pH 7.4), no supplement; Refeyn One mass photometer

Molecule: CC(C)(COP(=O)(O)OP(=O)(O)OC[C@H]1O[C@@H](n2cnc3c(N)ncnc32)[C@H](O)[C@@H]1OP(=O)(O)O)[C@@H](O)C(=O)NCCC(=O)NCCS [CoA]
- mass photometry titration (tetramer to dimer shift); saturation at 62.5 μM, 1:1 d (RamBPd (Pden_1365) [1]): tetrameric RamBPd complex dissociates into a dimer upon the addition of CoA

- Kd (RamBPd (Pden_1365) [2]): ~700 µM
Molecule: C[C@@H](C(=O)SCCNC(=O)CCNC(=O)[C@H](O)C(C)(C)COP(=O)(O)OP(=O)(O)OC[C@H]1O[C@@H](n2cnc3c(N)ncnc32)[C@H](O)[C@@H]1OP(=O)(O)O)[C@H](O)C(=O)O [β-methylmalyl-CoA]

- ratio of dimer to tetramer at saturation with 62.5 uM free CoA (dimer:tetramer) [3]: 1
- ratio of dimers to tetramers with beta-methylmalyl-CoA (dimer:tetramer) [3]: 9
- ratio of dimers to tetramers with crotonyl-CoA (dimer:tetramer) [3]: 3
- ratio of dimers to tetramers with mesaconyl-CoA (dimer:tetramer) [3]: 3
- stoichiometry N [3]: 2
- stoichiometry N [4]: 4
Molecule: RamBPd (Pden_1365), regulator of acetate metabolism of Paracoccus denitrificans Pd1222 (natural protein)
